Results from patent publication US20160362487A1 (Regeneron, published 2016).
Where a chain is given by its changes, count along the chain named. Numbers in names are those of the source.

B1: H4H9660P (antibody, human IgG4, V domains shown)
VH: EVQLVESGGGLVQPGGSLRLSCAASGITLSSYGMSWVRQAPGKGLEWVASIFGSGGGPYYADSVKGRFTMSRDNSKNTLYLQMNSLRAEDTAVYYCAKDRYSGSYYGGFDYWGRGTLVTVSS
VL: DIQMTQSPSSVSASVGDRVTITCRASQGITSWLAWYQQKPGKAPTLLIYAASSLQTGVPSRFSGSGSGTDFTLTISSLQPEHFATYYCQQANSFPPTFGGGTKVEIK
notes: Human IgG4 Fc (H4H)
B2: H4H9662P (antibody, V domains shown)
VH: EVQLVESGGGLVQPGGSLRLSCAASGFTFSSYALTWVRQAPGKGLEWVSFISGSGGRPFYADSVKGRFTISRDNSKNMLYLQMNSLRAEDTAIYYCAKSLYTTSWYGGFDSWGQGTLVTVSS
VL: B1 VL with I29V, T30V, T45K, T56S, H82D, A91S, P96F, F98L, G100P, E105D
notes: Human IgG4 Fc (H4H)
B3: H4H9663P (antibody, human IgG4, V domains shown)
VH: QVQLVQSGAEVKKPGASVKVSCKASGYTFTGHYMYWMRQAPGQGLEWMGWINPNSGGTNYAQKFQDRVTMTRDTSISTAYMELSRLRSDDTAVYYCARGRYGSSWYGGFEYWGQGTLVTVSS
VL: B1 VL with T45N, S52A, T56S, H82D, A84T, N92Y, F94L, P96L
notes: Human IgG4 Fc (H4H)
B4: H4H9664P (antibody, human IgG4, V domains shown)
VH: QVQLVESGGGVVQPGRSLRLSCAASGFTFSSYGLHWVRQSPGKGLEWVALISYDGSNKYYADSVKGRFTISRDNSKNTLYLQMNSLRPEDTAGYFCAKSLYTTSWYGGFDYWGQGTLVTVSS
VL: B1 VL with T30R, T45N, T56S, H82D, G100P, E105D
notes: Human IgG4 Fc (H4H)
B5: H4H9665P (antibody, human IgG4, V domains shown)
VH: EVQLVESGGGLVQPGGSLRLSCAASGFTFSNYAMTWVRQAPGKGLEWVSTISGSGDNTYYADSVQGRFTISRGHSKNTLYLQMNSLRAEDTAVYYCAKPTYSRSWYGAFDFWGQGTMVTVSS
VL: B1 VL with T30S, T45Q, S53R, T56S, S63W, H82D, S93N, P96F, G100P, E105D
notes: Human IgG4 Fc (H4H)
B6: H4H9666P (antibody, human IgG4, V domains shown)
VH: QVQLVQSGAEVKKPGASVKVSCKASGYTFTSYGISWVRQAPGQGLEWMGWIRAYNGYTNYAQKFQGRVTMTTDTSTNTAYMELRTLNSDDTAVYYCARDRYSGSFHGNFDYWGQGTLVTVSS
VL: B1 VL with T30F, T45K, L46V, S53N, Q55E, T56S, H82D, F94L, P96L
notes: Human IgG4 Fc (H4H)
B7: H4H9667P (antibody, human IgG4, V domains shown)
VH: EVQLVESGGGLVQPGGSLRLSCAASGFTFSTYSMHWVRQAPGKGLEYVSTINNNGDTTYYADSVKGRFTISRDNSKNTLYLQLGSLRPEDMAVYYCARQTYTSSWYGGFDSWGQGTLVTVSS
VL: B1 VL with T45K, S53N, T56S, S76T, H82D, F94L, P96F, G100P, E105D
notes: Human IgG4 Fc (H4H)
B8: H4H9670P (antibody, V domains shown)
VH: EVQLVESGGGLVQPGGSLRLSCAASGFTLSSYAMSWVRQAPGKGLEWVSAISGSGGSTYYADSVKGRFTISRDNSKNSLYLQLNSLRAEDTAVYYCAKTLYTTSWYGGFQHWGQGTLVTVSS
VL: DIQMTQSPSSVSASIGDRVTITCRASQGISSWLAWYQQKPGKVPKLLIYAASSLQSGFPSRFSGSGSGTDFTLTISSLQPEDFATYYCQQTHSFPWTVGQGTKVEIK
notes: Human IgG4 Fc (H4H)

Target: T1, cynomolgus monkey IL-33 expressed with a C-terminal hexahistidine tag (cynomolgus monkey)
T1 construct: also called MfIL-33-6His; Mf-IL-33-6His
T1 chain: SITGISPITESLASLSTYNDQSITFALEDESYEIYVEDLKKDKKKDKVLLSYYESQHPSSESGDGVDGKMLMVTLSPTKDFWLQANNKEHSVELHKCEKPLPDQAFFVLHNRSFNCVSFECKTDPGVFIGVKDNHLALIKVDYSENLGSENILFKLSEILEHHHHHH
Assay: SPR 37C pH7.4, mAb captured
Procedure: (§1) Equilibrium dissociation constants (KD values) for IL-33 binding to purified anti-IL-33 monoclonal antibodies were determined using a real-time surface plasmon resonance biosensor using a Biacore 4000 instrument. The Biacore sensor surface was first derivatized by amine coupling with either a polyclonal rabbit anti-mouse antibody (GE, # BR-1008-38) or with a monoclonal mouse anti-human Fc antibody (GE, # BR-1008-39) to capture anti-IL-33 monoclonal antibodies expressed with mouse or with human IgG4 constant regions, respectively. All Biacore binding studies were performed in 0.01M ADA pH 7.4, 0.15M NaCl, 3 mM EDTA, and 0.05% v/v Surfactant Tween-20 (ABS-ET running buffer). […] Association of either hIL-33 or MfIL-33-6His to the captured monoclonal antibody was monitored for 4 minutes and their dissociation in ABS-ET running buffer was monitored for 10 minutes. The effect of reduced pH on the binding of each anti-IL-33 antibody to either hIL-33 or MfIL-33-6His was studied using an in-line pH chase assay format in 0.01M ADA pH 6.0, 0.15M NaCl, 3 mM EDTA, and 0.05% v/v Surfactant Tween-20 (ABS-ET pH6 buffer). To achieve this, association of either hIL-33 or MfIL-33-6His to the captured monoclonal antibody was monitored for 4 minutes in ABS-ET running buffer. Following a 30 second dissociation of either hIL-33 or MfIL-33-6His in ABS-ET running buffer, ABS-ET pH6 buffer was injected for 3 minutes, and the analyte dissociation under the low-pH conditions was measured. All the binding kinetic experiments were performed at both 25° C. and 37° C. Kinetic association (kₐ) and dissociation (kd) constants were determined by fitting the real-time sensorgrams to a 1:1 binding model using Scrubber 2.0c curve fitting software. Binding dissociation equilibrium constants (KD) and dissociative half-lives (t½) were calculated from the kinetic rate constants as: […]

| Binder | Kd | koff | kon | t½ |
| --- | --- | --- | --- | --- |
| B1 | 6.53 nM | 0.00444 s⁻¹ | 680000 M⁻¹ s⁻¹ | 2.6 min |
| B2 | 2.24 nM | 0.00158 s⁻¹ | 707000 M⁻¹ s⁻¹ | 7 min |
| B3 | 2.22 nM | 0.00361 s⁻¹ | 1.62e+06 M⁻¹ s⁻¹ | 3.2 min |
| B4 | 16.2 nM | 0.00584 s⁻¹ | 361000 M⁻¹ s⁻¹ | 2 min |
| B5 | 1.91 nM | 0.0021 s⁻¹ | 1.1e+06 M⁻¹ s⁻¹ | 5 min |
| B6 | 32.7 nM | 0.0141 s⁻¹ | 432000 M⁻¹ s⁻¹ | 0.8 min |
| B7 | 4.66 nM | 0.00317 s⁻¹ | 681000 M⁻¹ s⁻¹ | 4 min |
| B8 | 6.84 nM | 0.00503 s⁻¹ | 735000 M⁻¹ s⁻¹ | 2.3 min |

Target: T2, human IL-33 (R&D Systems, #3625-IL-010/CF) (human, UniProt O95760 112-270)
T2 construct: Commercial recombinant protein; also called hIL-33; interleukin-33
T2 sequence (looked up): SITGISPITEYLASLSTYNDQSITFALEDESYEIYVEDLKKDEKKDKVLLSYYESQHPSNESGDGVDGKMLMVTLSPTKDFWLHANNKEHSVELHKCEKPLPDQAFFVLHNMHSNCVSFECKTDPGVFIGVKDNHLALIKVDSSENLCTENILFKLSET
Assay: SPR 37C pH7.4, mAb captured
Procedure: as §1

| Binder | Kd | koff | kon | t½ |
| --- | --- | --- | --- | --- |
| B1 | 0.596 nM | 0.000479 s⁻¹ | 803000 M⁻¹ s⁻¹ | 24 min |
| B2 | 0.443 nM | 0.00062 s⁻¹ | 1.4e+06 M⁻¹ s⁻¹ | 19 min |
| B3 | 0.677 nM | 0.00124 s⁻¹ | 1.83e+06 M⁻¹ s⁻¹ | 9 min |
| B4 | 1.39 nM | 0.000721 s⁻¹ | 519000 M⁻¹ s⁻¹ | 16 min |
| B5 | 1.19 nM | 0.00144 s⁻¹ | 1.21e+06 M⁻¹ s⁻¹ | 8 min |
| B6 | 0.681 nM | 0.00077 s⁻¹ | 1.13e+06 M⁻¹ s⁻¹ | 15 min |
| B7 | 0.618 nM | 0.000603 s⁻¹ | 976000 M⁻¹ s⁻¹ | 19 min |
| B8 | 0.676 nM | 0.000783 s⁻¹ | 1.16e+06 M⁻¹ s⁻¹ | 15 min |

Target: T1, cynomolgus monkey IL-33 expressed with …
Assay: BLI; captured MfIL-33-6His, mAb-1 step with Buffer
Procedure: Binding competition between a panel of different anti-IL-33 monoclonal antibodies was determined using a real time, label-free bio-layer interferometry assay on an Octet® HTX biosensor (ForteBio, A Division of Pall Life Sciences). The experiment was performed at 25° C. using a buffer of 0.01M HEPES pH7.4, 0.15M NaCl, 3 mM EDTA, 0.05% v/v Surfactant Tween-20, and 0.1 mg/ml BSA (HBS-ET kinetics buffer) with the plate shaking at a speed of 1000 rpm. […] The antigen-captured biosensors were then saturated with a first anti-IL-33 monoclonal antibody (subsequently referred to as mAb-1) by immersion into wells containing 50 μg/mL solution of mAb-1 for 5 minutes. The biosensors were then dipped into wells containing a 50 μg/mL solution of a second anti-IL-33 monoclonal antibody (subsequently referred to as mAb-2) for 4 minutes. The biosensors were washed in HBS-ET kinetics buffer in between every step of the experiment. The real-time binding response was monitored during the experiment, and the maximum binding response for each binding step was recorded. The response of mAb-2 binding to MfIL-33-6His pre-complexed with mAb-1 was measured, and competitive/non-competitive behavior of different anti-IL-33 monoclonal antibodies with respect to each other was determined.

| Binder | mAb-2 Binding to the Pre-complex of mAb-1 & MfIL-33-6xHis |
| --- | --- |
| B1 | 0.3 nm |
| B2 | 0.26 nm |
| B3 | 0.31 nm |
| B4 | 0.31 nm |
| B5 | 0.33 nm |
| B6 | 0.32 nm |
| B7 | 0.3 nm |
| B8 | 0.3 nm |

Target: T2, human IL-33 (R&D Systems, …)
Assay: BLI; hIL-33 pre-mixed with mAb-2 H1M9565N
Procedure: (§2) Binding competition between a panel of different anti-IL-33 monoclonal antibodies was determined using a real time, label-free bio-layer interferometry assay on an Octet® HTX biosensor (ForteBio, A Division of Pall Life Sciences). The experiment was performed at 25° C. using a buffer of 0.01M HEPES pH7.4, 0.15M NaCl, 0.05% v/v Surfactant Tween-20, and 0.1 mg/ml BSA (HBS-ET kinetics buffer) with the plate shaking at a speed of 1000 rpm. To assess whether two antibodies were able to compete with one another for binding to human IL-33, a pre-mix assay format was used where 100 nM of human IL-33 (R&D Systems; #3625-IL-010/CF) was pre-mixed with 500 nM of different anti-IL-33 monoclonal antibodies (subsequently referred to as mAb-2) for at least 2 hours prior to running the binding competition assay. […] Following the capture step, unoccupied anti-mouse Fc polyclonal antibody and anti-human Fc polyclonal antibody on the Octet biosensors were saturated by submerging them for 4 minutes into wells containing 200 μg/mL of a non-specific monoclonal antibody with a mouse Fc or with a human Fc, respectively. Finally, the Octet biosensors were immersed for 4 minutes into wells containing the pre-mixed samples of 100 nM of human IL-33 and 500 nM of mAb-2. At the end of each cycle, the non-covalently captured anti-IL-33 antibodies along with the bound pre-complex of human IL-33 and mAb-2 were removed from the biosensors using three alternate 20 second immersions into 10 mM HCl followed by submerging into HBS-ET kinetics buffer. The biosensors were washed in HBS-ET kinetics buffer in between every step of the experiment. The real-time binding response was monitored during the binding events, and the binding response (in units of nm) at the end of every step was recorded.

| Binder | mAb-1 Binding to the Pre-complex of mAb-2 & hIL-33 |
| --- | --- |
| B1 | 0.53 nm |
| B2 | 0.57 nm |
| B3 | 0.54 nm |
| B4 | 0.48 nm |
| B5 | 0.66 nm |
| B6 | 0.56 nm |
| B7 | 0.48 nm |
| B8 | 0.51 nm |

Target: T2, human IL-33 (R&D Systems, …)
Assay: BLI; hIL-33 pre-mixed with mAb-2 Isotype control 2
Procedure: as §2

| Binder | mAb-1 Binding to the Pre-complex of mAb-2 & hIL-33 |
| --- | --- |
| B1 | 0.15 nm |
| B2 | 0.11 nm |
| B3 | 0.09 nm |
| B4 | 0.1 nm |
| B5 | 0.09 nm |
| B6 | 0.08 nm |
| B7 | 0.12 nm |
| B8 | 0.12 nm |
